One molecule from patent US20230103793A1 (DYNE THERAPEUTICS, published 2023) can be followed below.

The target in one experiment is T1, recombinant human TfR1 (human, UniProt P02786 89-760).
T1 construct: Recombinant huTfR1 coated on ELISA plates or used in the immunoprecipitation; also called huTfR1; hTfR1
As to the kind of experiment: ELISA, conjugate against unconjugated antibody.

Another experiment concerns the target T2, recombinant cyno TfR1 (cynomolgus monkey (Macaca fascicularis), UniProt Q5RDH6 87-760 (Pongo abelii entry), limits assumed).
T2 construct: Recombinant cynoTfR1 coated on ELISA plates; also called cTfR1; cynomolgus monkey TfR1
T2 chain: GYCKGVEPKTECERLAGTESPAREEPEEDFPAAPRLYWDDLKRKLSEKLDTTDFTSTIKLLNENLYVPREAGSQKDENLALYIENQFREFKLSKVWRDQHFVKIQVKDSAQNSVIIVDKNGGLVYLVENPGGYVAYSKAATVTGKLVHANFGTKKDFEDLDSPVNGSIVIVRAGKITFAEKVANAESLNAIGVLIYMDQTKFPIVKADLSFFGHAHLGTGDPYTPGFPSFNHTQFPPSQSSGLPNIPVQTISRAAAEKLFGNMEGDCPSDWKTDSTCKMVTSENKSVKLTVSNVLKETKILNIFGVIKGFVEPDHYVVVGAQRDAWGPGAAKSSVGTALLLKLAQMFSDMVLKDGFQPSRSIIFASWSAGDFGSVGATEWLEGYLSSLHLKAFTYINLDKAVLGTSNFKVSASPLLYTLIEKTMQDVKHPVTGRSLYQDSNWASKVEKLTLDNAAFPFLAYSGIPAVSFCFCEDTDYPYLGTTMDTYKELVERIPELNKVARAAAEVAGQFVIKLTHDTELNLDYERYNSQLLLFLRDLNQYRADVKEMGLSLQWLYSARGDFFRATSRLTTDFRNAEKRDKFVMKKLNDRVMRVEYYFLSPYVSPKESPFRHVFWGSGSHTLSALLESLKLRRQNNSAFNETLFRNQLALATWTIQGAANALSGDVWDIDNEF
Briefly: ELISA, conjugate against unconjugated antibody. In general terms: An ELISA detects its analyte on a solid surface through an enzyme-linked reagent.

B1: anti-TfR (VH of SEQ ID NO: 17 and VL of SEQ ID NO: 18) conjugated to a DMPK-targeting oligonucleotide (control DMPK-ASO) (antibody, V domains shown)
VH: QVQLVQSGAEVKKPGESLKISCKGSGYSFTSYWIGWVRQMPGKGLEWMGIIYPGDSDTRYSPSFQGQVTISADKSISTAYLQWSSLKASDTAMYYCARFPYDSSGYYSFDYWGQGTLVTVSS
VL: not shown
modifications: DMPK-targeting antisense oligonucleotide linked through a cathepsin-cleavable Val-Cit linker to the ε-amine of lysine of the antibody (site and chain not stated)
notes: In the uptake assay several different DMPK-targeting oligonucleotides were used and the conjugates were also labeled with Cypher5e; also called anti-TfR in conjugates with a DMPK targeting oligo; oligonucleotide-conjugated anti-TfR
In the case of B1, the “fold increase of binding upon conjugation (against unconjugated anti-TfR)” value in the experiment with recombinant human TfR1 and in the experiment with recombinant cyno TfR1 was 3 to 6 fold in each case.
